Changes are numbered by the printed parent chain.
What was measured:
LRP6_(P3E3P4E4) N813A = biological target: T1, LRP6_(P3E3P4E4) N813A (human, UniProt O75581 629-1244, N813A); experiment: SPR
T1 sequence (looked up): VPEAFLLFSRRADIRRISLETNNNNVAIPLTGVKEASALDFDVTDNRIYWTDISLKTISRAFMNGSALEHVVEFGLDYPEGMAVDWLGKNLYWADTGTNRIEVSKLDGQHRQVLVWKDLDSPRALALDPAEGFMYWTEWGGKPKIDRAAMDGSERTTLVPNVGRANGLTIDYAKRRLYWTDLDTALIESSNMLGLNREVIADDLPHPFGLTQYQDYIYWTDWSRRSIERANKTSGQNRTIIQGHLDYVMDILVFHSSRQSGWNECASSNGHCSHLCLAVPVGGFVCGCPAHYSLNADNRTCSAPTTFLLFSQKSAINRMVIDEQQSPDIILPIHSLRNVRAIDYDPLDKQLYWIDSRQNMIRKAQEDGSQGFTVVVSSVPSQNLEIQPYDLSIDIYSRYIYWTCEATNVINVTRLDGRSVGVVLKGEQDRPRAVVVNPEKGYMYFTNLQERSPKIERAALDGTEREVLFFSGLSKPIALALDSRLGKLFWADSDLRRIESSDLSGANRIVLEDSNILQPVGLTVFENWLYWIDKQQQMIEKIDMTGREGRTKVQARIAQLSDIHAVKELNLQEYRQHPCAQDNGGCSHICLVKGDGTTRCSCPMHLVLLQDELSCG

LRP6_(P3E3P4E4) W767A = biological target: T2, LRP6_(P3E3P4E4) W767A (human, UniProt O75581 629-1244, W767A); experiment: SPR
T2 sequence (looked up): T1 sequence (looked up) with W139A, A185N

[1] = biological target: T3, LRP6_(P3E3P4E4), wild type (human, UniProt O75581 629-1244); experiment: SPR
T3 sequence (looked up): T1 sequence (looked up) with A185N

LRP6_(P3E3P4E4) Y706A = biological target: T4, LRP6_(P3E3P4E4) Y706A (human, UniProt O75581 629-1244, Y706A); experiment: SPR
T4 sequence (looked up): T1 sequence (looked up) with Y78A, A185N

LRP6_(P3E3P4E4) E708A = biological target: T5, LRP6_(P3E3P4E4) E708A (human, UniProt O75581 629-1244, E708A); experiment: SPR
T5 sequence (looked up): T1 sequence (looked up) with E80A, A185N

[2] = biological target: T6, LRP6 ectodomain (LRP6ECD) (human, UniProt O75581 20-1361); experiment: SEC-MALS
T6 sequence (looked up): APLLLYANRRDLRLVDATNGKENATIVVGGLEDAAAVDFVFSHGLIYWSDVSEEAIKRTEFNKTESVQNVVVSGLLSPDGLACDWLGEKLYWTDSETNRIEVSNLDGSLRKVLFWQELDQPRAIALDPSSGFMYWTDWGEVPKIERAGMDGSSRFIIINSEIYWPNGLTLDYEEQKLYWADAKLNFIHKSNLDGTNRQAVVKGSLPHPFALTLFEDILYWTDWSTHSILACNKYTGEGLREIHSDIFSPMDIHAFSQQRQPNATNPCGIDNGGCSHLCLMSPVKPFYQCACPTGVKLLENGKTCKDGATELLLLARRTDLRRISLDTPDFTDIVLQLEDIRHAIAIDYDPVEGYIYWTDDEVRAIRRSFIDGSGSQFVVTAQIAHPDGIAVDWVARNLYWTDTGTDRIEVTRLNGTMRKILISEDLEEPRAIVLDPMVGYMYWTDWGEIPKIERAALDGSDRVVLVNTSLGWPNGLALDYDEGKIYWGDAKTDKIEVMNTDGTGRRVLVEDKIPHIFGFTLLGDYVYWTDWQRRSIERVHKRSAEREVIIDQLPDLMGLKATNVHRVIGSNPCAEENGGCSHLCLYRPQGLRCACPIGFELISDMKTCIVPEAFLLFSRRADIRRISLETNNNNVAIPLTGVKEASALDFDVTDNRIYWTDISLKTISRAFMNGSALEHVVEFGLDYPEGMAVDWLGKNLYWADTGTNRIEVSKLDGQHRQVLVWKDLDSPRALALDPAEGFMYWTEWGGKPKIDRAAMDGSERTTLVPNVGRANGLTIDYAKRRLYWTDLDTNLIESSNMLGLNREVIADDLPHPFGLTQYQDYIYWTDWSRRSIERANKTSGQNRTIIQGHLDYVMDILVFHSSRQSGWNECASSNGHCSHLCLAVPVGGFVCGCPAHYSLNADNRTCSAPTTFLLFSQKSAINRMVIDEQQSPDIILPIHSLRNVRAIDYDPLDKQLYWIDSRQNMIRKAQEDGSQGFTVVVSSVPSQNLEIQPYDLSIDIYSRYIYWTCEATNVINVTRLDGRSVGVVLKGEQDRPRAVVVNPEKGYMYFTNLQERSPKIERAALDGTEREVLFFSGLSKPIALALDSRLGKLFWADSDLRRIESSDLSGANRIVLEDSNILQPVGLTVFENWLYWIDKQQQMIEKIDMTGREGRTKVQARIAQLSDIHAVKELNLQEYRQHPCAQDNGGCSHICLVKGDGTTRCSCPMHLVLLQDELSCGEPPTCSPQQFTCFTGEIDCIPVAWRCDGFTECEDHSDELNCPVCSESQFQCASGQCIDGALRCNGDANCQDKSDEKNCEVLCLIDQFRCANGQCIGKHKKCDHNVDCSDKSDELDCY

B1: Dickkopf 1 (Dkk1) (ligand, human, UniProt O94907 32-266, looked up)
chain: TLNSVLNSNAIKNLPPPLGGAAGHPGSAVSAAPGILYPGGNKYQTIDNYQPYPCAEDEECGTDEYCASPTRGGDAGVQICLACRKRRKRCMRHAMCCPGNYCKNGICVSSDQNHFRGEIEETITESFGNDHSTLDGYSRRTTLSSKMYHTKGQEGSVCLRSSDCASGLCCARHFWSKICKPVLKEGQVCTKHRRKGSHGLEIFQRCYCGEGLSCRIQKDHHQASNSSRLHTCQRH
- binding result (LRP6_(P3E3P4E4) N813A): binds
- binding result (LRP6_(P3E3P4E4) W767A): binds
- Kd [1]: 58 nM
- binding result (LRP6_(P3E3P4E4) Y706A): binds
- binding result (LRP6_(P3E3P4E4) E708A): binds

B2: human Mesd with an internal Flag tag (co-expressed with LRP6ECD) (natural protein, UniProt Q14696-1 34-234, looked up)
chain: AEGSPGTPDESTPPPRKKKKDIRDYNDADMARLLEQWEKDDDIEEGDLPEHKRPSAPVDFSKIDPSKPESILKMTKKGKTLMMFVTVSGSPTEKETEEITSLWQGSLFNANYDVQRFIVGSDRAIFMLRDGSYAWEIKDFLVGQDRCADVTLEGQVYPGKGGGSKEKNKTKQDKGKKKKEGDLKSRSSKEENRAGNKREDL
- stoichiometry N [2]: 1

Reference: publication PMC3564486 (Developmental cell, 2011)
